Measurements: US20200199217A1 (published 2020)
Residue numbers refer to the chain shown, from its start.

T1: hu-IL-36α (human, UniProt Q9UHA7 6-158)
T1 sequence: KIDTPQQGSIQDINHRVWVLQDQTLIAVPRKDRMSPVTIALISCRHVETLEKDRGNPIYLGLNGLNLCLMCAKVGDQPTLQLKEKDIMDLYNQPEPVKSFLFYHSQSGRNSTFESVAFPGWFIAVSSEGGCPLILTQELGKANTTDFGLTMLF

T2: hu-IL-36γ (human, UniProt Q9NZH8 18-169)
T2 sequence: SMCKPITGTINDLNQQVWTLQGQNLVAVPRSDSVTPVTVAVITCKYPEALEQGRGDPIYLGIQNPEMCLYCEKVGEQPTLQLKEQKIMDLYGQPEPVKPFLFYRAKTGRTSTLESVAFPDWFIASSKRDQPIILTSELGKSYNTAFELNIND

B1: mAb1.0 Fab (Fab, V domains shown)
VH: QVQLVESGGGVVQPGRSLRLSCAASGFSFSAYAMHWVRQAPGKGLEWVAVISYDGTNEYYADSVKGRFTISRDNSKNTLYLQMNSLRAEDTAVYYCARGIRIFTSYFDSWGQGTLVTVSS
VL: QSVLTQPPSVSGAPGQRVTISCTGSSSNIGAHYDVHWYQQLPGTAPKLLIYSNNNRPSGVPDRFSGSKSGTSASLAITGLQAEDEADYYCQSYDYSLRGYVFGGGTKLTVL
B2: mAb3.0 Fab (Fab, V domains shown)
VH: QLQLQESGPGLVKPSETLSLTCTVSGGSISSTSYYWGWIRQPPGKGLEWIGSIHYSGNTYYNPSLKSRVTISVDTSKNQFSLKLSSVTAADTAVYYCARVHYGGYIPRRFDHWGQGTLVTVSS
VL: B1 VL with H32G, S52G, N54T
B3: mAb4.0 Fab (Fab, V domains shown)
VH: QLQLQESGPGLVKPSETLSLTCTVSGGSIGSRSYYWGWIRQPPGKGLEWIGSIHYSGTTYYNPSLKSRVTISVDTSKNQFSLKLSSVTAADTAVYYCARVAPSYPRVFDYWGQGTLVTVSS
VL: B1 VL with H32G, S52G, N54R, G99V
B4: mAb5.0 Fab (Fab, V domains shown)
VH: EVQLLESGGGLVQPGGSLRLSCAASGFTFSTYAMSWVRQAPGKGLEWVSGISGGSGYTYYADSVKGRFTISRDNSKNTLYLQMNSLRAEDTAVYYCARVVTYRDPPASFDYWGQGTLVTVSS
VL: B1 VL with S52G, N54D, R98K, G99A
B5: mAb2.0 Fab (Fab, V domains shown)
VH: B2 VH with S31T, T32S, H54Y, S56T, H101R, G104V, Y105G, I106V, R109Y, H112P
VL: B1 VL with S52G, N54D, R98S
B6: mAb5.0 IgG (antibody, V domains shown)
VH: B4 VH
VL: B1 VL with S52G, N54D, R98K, G99A
B7: mAb3.0 IgG (antibody, V domains shown)
VH: B2 VH
VL: B1 VL with H32G, S52G, N54T
B8: mAb4.0 IgG (antibody, V domains shown)
VH: B3 VH
VL: B1 VL with H32G, S52G, N54R, G99V
B9: mAb1.0 IgG (antibody, V domains shown)
VH: B1 VH
VL: B1 VL

molecular target: T1, hu-IL-36α; assay: cell-based or functional assay

% Inhibition, HEK Blue SEAP reporter assay [%]	Binder
70	B1
40	B2
91	B3
75	B4
91	B5

molecular target: T2, hu-IL-36γ; assay: cell-based or functional assay

% Inhibition, HEK Blue SEAP reporter assay [%]	Binder
31	B1
64	B2
57	B3
75	B4
89	B5

molecular target: T1, hu-IL-36α; assay: cell-based or functional assay; remark: another data set of the same source

IC50, HEK Blue SEAP reporter assay [nM]	Binder
95	B6
90	B7
16	B8
43	B9

molecular target: T2, hu-IL-36γ; assay: cell-based or functional assay; remark: another data set of the same source

IC50, HEK Blue SEAP reporter assay [nM]	Binder
142	B6
30	B7
52	B8
5.3	B9
